Source: patent publication US20190125929A1

Legend:
[1] = biological target: decellularized extracellular matrix derived from TSP2 KO mouse dermal fibroblasts (mouse); experiment: AFM adhesion force, vWF-conjugated 2 µm bead on decellularized ECM (n=5)
[2] = biological target: decellularized extracellular matrix derived from wild-type (WT) mouse dermal fibroblasts (mouse); experiment: as above

adhesion force [1]: 16.5 pN | adhesion force [2]: 53.8 pN
Substance: Recombinant von Willebrand Factor (vWF) (Millipore), conjugated via EDC/NHS chemistry to a 2 µm carboxylated polystyrene bead on an AFM cantilever
